Laboratory results taken from the supplement of paper PMC7125110.
± gives the standard error. Fewer inactive variants are shown than the library holds.

B1: glmS ribozyme (parent)
chain: AUAAAAGCGCCAGAACUACAGAAAUGUAGUUGACGAGGAGGAGGUUUAUCGAAUUUUCGGCGGAUGCCUCCAAA

Key:
Details in all cases: with glucosamine-6-phosphate
[1] = variants of: B1; assay: self-cleavage kobs at 640 uM GlcN6P; higher = faster cleavage; RNA array
In short: (§1)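 kobs was derived by fitting per-tile medians to one- or two-exponential decays after normalising signals to baseline and to non-cleaving reference variants. Those signals came from barcoded ribozyme variants transcribed in situ by E. coli RNA polymerase on sequenced MiSeq chips, followed through a hybridised Cy3 probe at 37 °C and imaged over ~14 h. Glucosamine-6-phosphate (40 μM to 10 mM) in HEPES/KCl/Mg(OAc)2 buffer was flowed in. Weighted Michaelis–Menten fits across concentrations then gave kcat and KM.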

[2] = variants of: B1; assay: self-cleavage kobs at 2500 uM GlcN6P; higher = faster cleavage; RNA array
In short: as §1

[3] = variants of: B1; assay: self-cleavage kobs at 10000 uM GlcN6P; higher = faster cleavage; RNA array
In short: as §1

Variant	self-cleavage kobs at 640 uM GlcN6P [1]	self-cleavage kobs at 2500 uM GlcN6P [2]	self-cleavage kobs at 10000 uM GlcN6P [3]
C11A A12U A36C A48C G60U G62A	< 1e-05 s⁻¹	< 1e-05 s⁻¹	
C11A U31A G60A	< 1e-05 s⁻¹		
G21U U47G	0.00247 ± 0.00049 s⁻¹		
U31G G37U U69G	6.98e-05 ± 2.8e-05 s⁻¹	9.82e-05 ± 3e-05 s⁻¹	
U30G C34A U47A	< 1e-05 s⁻¹		
C11G G37C A39G	< 1e-05 s⁻¹	< 1e-05 s⁻¹	
G29A U49A A53G C68A	7.05e-05 ± 2.9e-05 s⁻¹		
C11G G29C A52G U55A C58A	< 1e-05 s⁻¹	< 1e-05 s⁻¹	< 1e-05 s⁻¹
C11G C16U G37A U45C A64G	< 1e-05 s⁻¹		
A14C A15G U69A	9.09e-05 ± 2.4e-05 s⁻¹	0.000115 ± 2.7e-05 s⁻¹	
C16U A33C	9.7e-05 ± 3.1e-05 s⁻¹	8.5e-05 ± 2.1e-05 s⁻¹	0.000247 ± 3.7e-05 s⁻¹
C11G G41U A48G A52C	< 1e-05 s⁻¹	< 1e-05 s⁻¹	
U30C C34U U57A	< 1e-05 s⁻¹		
C10U C50U A53C	< 1e-05 s⁻¹		
A15U A33G A64G C67A C70A C71U	9.67e-05 ± 3.1e-05 s⁻¹		
G13U C50A A64U U65G	< 1e-05 s⁻¹	< 1e-05 s⁻¹	
A12C U54G C68G	4.37e-05 ± 1.2e-05 s⁻¹	5.51e-05 ± 1.5e-05 s⁻¹	
C11U A15C U31C	6.01e-05 ± 2.1e-05 s⁻¹	0.000159 ± 5e-05 s⁻¹	
A12U A42G C70G	0.000705 ± 0.00032 s⁻¹	0.00109 ± 0.00041 s⁻¹	
G29U G32A G44A A64U	< 1e-05 s⁻¹		

Variant	self-cleavage kobs at 640 uM GlcN6P [1]	self-cleavage kobs at 2500 uM GlcN6P [2]	self-cleavage kobs at 10000 uM GlcN6P [3]
C16U G60U C61G	< 1e-05 s⁻¹		
A14C G40A G60U	< 1e-05 s⁻¹	< 1e-05 s⁻¹	
A14U A36U U69G	0.000169 ± 6.2e-05 s⁻¹	0.000194 ± 5.8e-05 s⁻¹	5.55e-05 ± 1.8e-05 s⁻¹
G13U A15C C58G	0.00154 ± 0.00048 s⁻¹	7.7e-05 ± 2.3e-05 s⁻¹	8.16e-05 ± 1.4e-05 s⁻¹
G13U G29A A33U	< 1e-05 s⁻¹		
A12U G37A U56G	0.00137 ± 0.00022 s⁻¹	0.00379 ± 0.00089 s⁻¹	
C11A A33G G63A G66U	< 1e-05 s⁻¹		
G29U U56C C61G	< 1e-05 s⁻¹		
G29A G35U A42U	< 1e-05 s⁻¹	< 1e-05 s⁻¹	< 1e-05 s⁻¹
A14C C16A G43U C68U	< 1e-05 s⁻¹	< 1e-05 s⁻¹	
C10U G35U	< 1e-05 s⁻¹	< 1e-05 s⁻¹	< 1e-05 s⁻¹
G13U G63A C71U	< 1e-05 s⁻¹	< 1e-05 s⁻¹	
A12U G32A A52U U54C C61G G63U C71A	< 1e-05 s⁻¹	< 1e-05 s⁻¹	
U30C G32U U47A	0.000115 ± 3.3e-05 s⁻¹	0.000106 ± 3e-05 s⁻¹	
A12G U46A	6e-05 ± 1.9e-05 s⁻¹	4.25e-05 ± 1.5e-05 s⁻¹	0.000187 ± 4.1e-05 s⁻¹
U30G A39G G41U A48G U69C	< 1e-05 s⁻¹	< 1e-05 s⁻¹	< 1e-05 s⁻¹
A12C G32A A64G C71A	< 1e-05 s⁻¹		
C11G A42U G63U	< 1e-05 s⁻¹		
C10U A52C G66A	< 1e-05 s⁻¹	< 1e-05 s⁻¹	
A14U A15U G29C C67U C70G	0.00266 ± 0.001 s⁻¹		

Variant	self-cleavage kobs at 640 uM GlcN6P [1]	self-cleavage kobs at 2500 uM GlcN6P [2]	self-cleavage kobs at 10000 uM GlcN6P [3]
C16U G51A G63A G66A	< 1e-05 s⁻¹		
C11U A14G A39C	0.000206 ± 5.2e-05 s⁻¹	0.000528 ± 0.00014 s⁻¹	
A14G C34U A52C C68U C70U	8.57e-05 ± 4.2e-05 s⁻¹		
G29A G32A U57C U69C	9.71e-05 ± 3.8e-05 s⁻¹		
C11U G60A	< 1e-05 s⁻¹	< 1e-05 s⁻¹	< 1e-05 s⁻¹
G13A A53G G66A	6.41e-05 ± 2.2e-05 s⁻¹		
A12G C58G C71U	9.42e-05 ± 1.7e-05 s⁻¹	3.81e-05 ± 1.2e-05 s⁻¹	
G13A C68G C71G	0.000118 ± 5e-05 s⁻¹	0.000141 ± 3.4e-05 s⁻¹	
G29A G35U	< 1e-05 s⁻¹	< 1e-05 s⁻¹	< 1e-05 s⁻¹
C11U A15U C70G	0.000134 ± 4.8e-05 s⁻¹		
G29C G44C C67G	0.000127 ± 3.8e-05 s⁻¹	0.000256 ± 0.00011 s⁻¹	
A15G U54A G66C	0.000369 ± 9e-05 s⁻¹	0.000502 ± 9.7e-05 s⁻¹	
A14U G41A U45A	6.25e-05 ± 2.9e-05 s⁻¹	0.000195 ± 5.4e-05 s⁻¹	
C16G U30A U55G	0.000125 ± 5.7e-05 s⁻¹	8.11e-05 ± 3.1e-05 s⁻¹	
A15C U30C U31G U69G	0.00017 ± 4.8e-05 s⁻¹		
A15C U45G U56C C58A C67G C68A	8.64e-05 ± 2.9e-05 s⁻¹		
G13A A42C G51C C61A	< 1e-05 s⁻¹	< 1e-05 s⁻¹	
G13U G29U A39G	0.000115 ± 2.8e-05 s⁻¹	7.21e-05 ± 2.3e-05 s⁻¹	
U30G G41U C50A	< 1e-05 s⁻¹	< 1e-05 s⁻¹	
